B1: nanobody A6 (VHH)
VHH: QVQLQESGGGLVQPGGSLRLSCAASGGTIRSDGMGWFRQVPKKEREFVGMITYMGPVYTADSVEGRFAISRDNVKNTVYLQMNNLQPEDTAVYYCAVHVGGIYYYEGSYEYWGQGTQVTVSS
notes: alpaca, immunised with Pf12-Pf41 complex; Pf41-specific; source: E. coli WK6, periplasmic extract, purified (HisTrap, SEC)
B2: nanobody G11 (VHH)
VHH: QVQLQESGGGLVQPGGSLRLSCAASGGTIRSDSMGWFRQVPKKEREFVGMITYMGPVYTADSVKGRFTISRDNVKNTVYLQMNNLQPEDAAVYYCAVHISGLYYYEASYKYWGQGTQVTVSS
notes: as for B1
B3: nanobody G12 (VHH)
VHH: QVQLQESGGGLVQPGGSLRLSCAASGGTIRSDSMGWFRQVPKKEREFVGMLTYMGPVYTADSVKGRFAISRDNVKNTVYLQMNNLQPDDTAVYYCAVHVSGVYYYEDSYRYWGQGTQVTVSS
notes: as for B1
B4: nanobody G7 (VHH)
VHH: QVQLQESGGGLVQAGGSLRLSCAASGRTFSSYGMGWFRQAPGTEREFVAAISWSGDSTYYADSVKGRFTISIDKAKNTVYLQMNSLKPEDTAVYYCAADHALVVGGTYNYWGQGTQVTVSS
notes: alpaca, immunised with Pf12-Pf41 complex; Pf12-specific; also called Nb G7; source: E. coli WK6, periplasmic extract, purified (HisTrap, SEC)
B5: nanobody H9 (VHH)
VHH: QVQLQESGGGLVQPGGSLRLSCAASGFTLDYYAIGWFRQAPGKEREGVSCIMSSDGSTYYADSVKGRFTISRDNAVNTVYLQMNGLKPEDTAVYYCATDKIVCGSGFIVDYGTDYRGKGTQVTVSS
notes: alpaca, immunised with Pf12-Pf41 complex; Pf12-specific; source: E. coli WK6, periplasmic extract, purified (HisTrap, SEC)
B6: Pf12 D1D2 (residues 28-304), untagged (domain or fragment, Plasmodium falciparum, UniProt C6KSX0 28-304, looked up)
chain: NLTCDFNDVYKLEFHPNQQTSVTKLCNLTPNVLEKVTIKCGSDKLNYNLYPPTCFEEVYASRNMMHLKKIKEFVIGSSMFMRRSLTPNKINEVSFRIPPNMMPEKPIYCFCENKKTITINGSNGNPSSKKDIINRGIVEIIIPSLNEKVKGCDFTTSESTIFSKGYSINEISNKSSNNQQDIVCTVKAHANDLIGFKCPSNYSVEPHDCFVSAFNLSGKNENLENKLKLTNIIMDHYNNTFYSRLPSLISDNWKFFCVCSKDNEKKLVFTVEASISS
notes: Pf12, Plasmodium falciparum 6-cysteine protein, residues N28-S304 (domains D1 and D2); lacks the signal peptide and the GPI-anchor site; After TEV cleavage three residues, GAS, remain at the N-terminus as cloning artefacts; N-glycosylation sites kept; treated with PNGase F before crystallisation; also called Pf12 wildtype; source: Spodoptera frugiperda 21 cells, secreted into growth media, …
B7: nanobody A3 (VHH)
VHH: QVQLQESGGGLVQAGGSLRLSCAASGRTFSNYAMGWFRQAPGKEREFVAAITWSGDSTYYGDSVKGRFTISRDNAKSTAYLQMNSLKPEDTAVYYCAADEAVVTTTLQWDYWGQGTQVTVSS
notes: as for B5
B8: nanobody A11 (VHH)
VHH: QVQLQESGGGLVQPGGSLRLSCAASGFTFDDYAIGWFRQAPGKEREGVSCIMSSDGSAYYADSVKGRFTISRDNAKNTVYLQMNSLRPEDTANYYCATDKIVCSTGFIVDYGMHYGGKGTQVTVSS
notes: as for B5

Key:
Settings in all cases: both partners purified
[1] = target: T1, Pf41 D1D2 (residues 21-368), untagged (Plasmodium falciparum, UniProt Q8I1Y0); assay: BLI; Octet RED96e; nanobodies loaded on NTA sensors; untagged Pf12 or Pf41 (6-200 nM) or their domains in solution; PBS pH 7.4, 0.1% BSA, 0.05% TWEEN-20, 25°C; global 1:1 fit
T1 construct: Pf41, Plasmodium falciparum 6-cysteine protein, residues K21-S368 (D1 with the inserted-domain-like region ID, and D2); lacks the signal peptide and ten C-terminal residues; After TEV cleavage three residues, GAS, remain at the N-terminus as cloning artefacts; N-glycosylation sites kept; treated with PNGase F before crystallisation; also called Pf41 wildtype; source: Spodoptera frugiperda 21 …

[2] = target: T2, Pf41 D2 (residues I242-S368) (Plasmodium falciparum 3D7, UniProt Q8I1Y0); assay: as above
T2 construct: Pf41, Plasmodium falciparum, C-terminal 6-cys domain D2, residues I242-S368; also called Pf41 D2 domain; source: Spodoptera frugiperda 21 cells, purified by the same protocol as Pf41 D1D2; not shown: His8, N-terminal, cleaved

[3] = target: T3, Pf12 labelled with DyLight 488 (Plasmodium falciparum (sequence as 3D7), DyLight 488 (N-hydroxysuccinimide ester), about 2.4 dye per protein); assay: FRET or BRET; Pf12-DL488 and Pf41-DL594 mixed 1:1 with five-fold excess of nanobody; FRET signal relative to the no-nanobody control
T3 construct: Pf12, Plasmodium falciparum 6-cysteine protein; The FRET methods say only 'Pf12'; also called Pf12-DL488
T3 chain: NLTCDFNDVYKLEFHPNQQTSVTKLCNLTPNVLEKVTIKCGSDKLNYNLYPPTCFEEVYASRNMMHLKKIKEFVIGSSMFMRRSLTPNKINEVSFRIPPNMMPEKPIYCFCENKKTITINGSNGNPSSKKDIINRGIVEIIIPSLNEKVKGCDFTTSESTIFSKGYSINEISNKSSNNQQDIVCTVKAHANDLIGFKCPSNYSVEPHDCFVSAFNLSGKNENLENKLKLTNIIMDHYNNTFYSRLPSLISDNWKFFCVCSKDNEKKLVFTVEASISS

[4] = target: T4, Pf12 D1D2 (residues 28-304), untagged (Plasmodium falciparum, UniProt C6KSX0); assay: BLI; Octet RED96e; nanobodies loaded on NTA sensors; untagged Pf12 or Pf41 (6-200 nM) or their domains in solution; PBS pH 7.4, 0.1% BSA, 0.05% TWEEN-20, 25°C; global 1:1 fit
T4 construct: Pf12, Plasmodium falciparum 6-cysteine protein, residues N28-S304 (domains D1 and D2); lacks the signal peptide and the GPI-anchor site; After TEV cleavage three residues, GAS, remain at the N-terminus as cloning artefacts; N-glycosylation sites kept; treated with PNGase F before crystallisation; also called Pf12 wildtype; source: Spodoptera frugiperda 21 cells, secreted into growth media, …

[5] = target: T5, octa-histidine tagged Pf41 D1D2 (residues 21-368) (Plasmodium falciparum, UniProt Q8I1Y0 21-368); assay: BLI; Octet RED96e; octa-histidine tagged Pf41 loaded on NTA sensors; untagged Pf12 wildtype, mutant or single domain 31-1000 nM; PBS pH 7.4, 0.1% BSA, 0.05% TWEEN-20, 25°C; read-out relative maximum response against wildtype
T5 construct: Pf41, Plasmodium falciparum 6-cysteine protein, residues K21-S368; TEV-cleavable tag left on; loaded on NTA sensors; also called tagged wildtype Pf41; source: Spodoptera frugiperda 21 cells, secreted into growth media, purified as tagged protein (Ni-IMAC, SEC); not shown: His8, N-terminal, kept
T5 sequence: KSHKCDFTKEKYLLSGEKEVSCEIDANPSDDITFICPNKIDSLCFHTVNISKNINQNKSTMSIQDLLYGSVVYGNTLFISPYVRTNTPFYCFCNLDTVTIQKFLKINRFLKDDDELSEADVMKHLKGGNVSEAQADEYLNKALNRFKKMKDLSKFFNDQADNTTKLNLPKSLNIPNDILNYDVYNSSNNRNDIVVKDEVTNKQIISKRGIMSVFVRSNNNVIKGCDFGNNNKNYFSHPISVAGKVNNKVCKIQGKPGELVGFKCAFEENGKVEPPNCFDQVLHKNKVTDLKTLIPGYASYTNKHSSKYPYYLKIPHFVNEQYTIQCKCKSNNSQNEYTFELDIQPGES

[6] = target: T6, Pf41 D1D2 (residues 21-368), untagged (Plasmodium falciparum, UniProt Q8I1Y0 21-368); assay: AUC; sedimentation velocity, 20°C, 50 000 rpm, absorbance at 280 nm, c(s) analysis with SEDFIT
T6 construct: Pf41, Plasmodium falciparum 6-cysteine protein, residues K21-S368 (D1 with the inserted-domain-like region ID, and D2); lacks the signal peptide and ten C-terminal residues; After TEV cleavage three residues, GAS, remain at the N-terminus as cloning artefacts; N-glycosylation sites kept; treated with PNGase F before crystallisation; also called Pf41 wildtype; source: Spodoptera frugiperda 21 …
T6 sequence (looked up): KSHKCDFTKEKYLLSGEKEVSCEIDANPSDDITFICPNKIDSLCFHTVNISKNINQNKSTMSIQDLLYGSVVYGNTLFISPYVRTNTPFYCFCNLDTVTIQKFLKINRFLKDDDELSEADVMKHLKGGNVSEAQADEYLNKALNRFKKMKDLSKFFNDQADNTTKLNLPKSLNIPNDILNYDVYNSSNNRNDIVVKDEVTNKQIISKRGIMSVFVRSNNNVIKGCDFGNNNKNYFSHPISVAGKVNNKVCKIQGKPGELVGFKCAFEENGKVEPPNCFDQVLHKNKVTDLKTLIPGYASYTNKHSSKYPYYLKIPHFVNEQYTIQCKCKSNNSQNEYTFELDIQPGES

[7] = target: T7, Pf12 D2 (residues E174-S304) (Plasmodium falciparum, UniProt C6KSX0); assay: BLI; Octet RED96e; nanobodies loaded on NTA sensors; untagged Pf12 or Pf41 (6-200 nM) or their domains in solution; PBS pH 7.4, 0.1% BSA, 0.05% TWEEN-20, 25°C; global 1:1 fit
T7 construct: Pf12, Plasmodium falciparum, C-terminal 6-cys domain D2, residues E174-S304; also called Pf12 D2 domain; source: Spodoptera frugiperda 21 cells, purified by the same protocol as Pf12 D1D2; not shown: His8, N-terminal, cleaved

| Binder | binding result [1] | binding result [2] | percent reduction of the Pf12-Pf41 FRET signal [3] [%] | further results |
| --- | --- | --- | --- | --- |
| B1 | binds | no binding |  |  |
| B2 | binds | no binding |  |  |
| B3 | binds | no binding |  |  |
| B4 | no binding |  | ~80 | Kd [4]: ~25 nM |
| B5 | no binding |  | ~90 | Kd [4]: < 0.01 nM |
| B6 |  |  |  | binding result [5]: binds; binding result [6]: binds |
| B7 | no binding |  | ~90 | binding result [7]: binds; binding result [4]: binds |
| B8 | no binding |  | ~90 | binding result [7]: binds; binding result [4]: binds |

From article PMC8930183, “Structure of the Pf12 and Pf41 heterodimeric complex of Plasmodium falciparum 6-cysteine proteins” (FEMS Microbes, 2022)
